The text below walks through data of patent US20150196666A1.

Experiment [1] concerns the target human trophoblast cell-surface antigen (TROP-2) (human) (UniProt P09758). As to the kind of experiment: cell binding assay on TROP-2-expressing cells.
For experiment [2], the target named is CD20 (human) (UniProt P11836). As to the kind of experiment: flow cytometry, unconjugated antibody + FITC goat anti-human IgG, Ramos cells; background in parentheses. For orientation: Flow cytometry measures light scatter and fluorescence of single cells or particles in a stream.
Sequence of CD20 (human) (P11836 whole entry): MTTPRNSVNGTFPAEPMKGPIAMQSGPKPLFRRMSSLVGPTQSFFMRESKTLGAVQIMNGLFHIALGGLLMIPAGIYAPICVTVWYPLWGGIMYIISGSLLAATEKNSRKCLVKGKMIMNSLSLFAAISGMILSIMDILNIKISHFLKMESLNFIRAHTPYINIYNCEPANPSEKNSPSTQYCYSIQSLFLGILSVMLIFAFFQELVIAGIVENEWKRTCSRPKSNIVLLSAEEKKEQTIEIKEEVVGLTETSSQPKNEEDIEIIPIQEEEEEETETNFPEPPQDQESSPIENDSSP
Experiment [3] concerns the target CD20 (human) (UniProt P11836). As to the kind of experiment: flow cytometry, unconjugated antibody + FITC goat anti-human IgG, REH cells; background in parentheses.
The target of experiment [4] is CD20 (human) (UniProt P11836). As to the kind of experiment: flow cytometry, unconjugated antibody + FITC goat anti-human IgG, Daudi cells; background in parentheses.
Experiment [5] has as its target CD20 (human) (UniProt P11836). As to the kind of experiment: flow cytometry, unconjugated antibody + FITC goat anti-human IgG, Jeko-1 cells; background in parentheses.
Experiment [6] has as its target CD20 (human) (UniProt P11836). The experiment can be described thus: flow cytometry, unconjugated antibody + FITC goat anti-human IgG, Raji cells; background in parentheses.
Experiment [7] deals with CD20 (human) (UniProt P11836). The experiment can be described thus: flow cytometry, unconjugated antibody + FITC goat anti-human IgG, 697 cells; background in parentheses.
Experiment [8] has as its target CD20 (human) (UniProt P11836). The experiment can be described thus: flow cytometry, unconjugated antibody + FITC goat anti-human IgG, RS4;11 cells; background in parentheses.
For experiment [9], the target named is CD20 (human) (UniProt P11836). As to the kind of experiment: flow cytometry, unconjugated antibody + FITC goat anti-human IgG, WSU-FSCCL cells; background in parentheses.
In experiment [10] the target is CD20 (human) (UniProt P11836). As to the kind of experiment: flow cytometry, unconjugated antibody + FITC goat anti-human IgG, MN-60 cells; background in parentheses.
In experiment [11] the target is human trophoblast cell-surface antigen (TROP-2) (human) (UniProt P09758). The experiment can be described thus: flow cytometry, surface, NCI-N87 cells.
Sequence of human trophoblast cell-surface antigen (TROP-2) (human) (P09758 27-323): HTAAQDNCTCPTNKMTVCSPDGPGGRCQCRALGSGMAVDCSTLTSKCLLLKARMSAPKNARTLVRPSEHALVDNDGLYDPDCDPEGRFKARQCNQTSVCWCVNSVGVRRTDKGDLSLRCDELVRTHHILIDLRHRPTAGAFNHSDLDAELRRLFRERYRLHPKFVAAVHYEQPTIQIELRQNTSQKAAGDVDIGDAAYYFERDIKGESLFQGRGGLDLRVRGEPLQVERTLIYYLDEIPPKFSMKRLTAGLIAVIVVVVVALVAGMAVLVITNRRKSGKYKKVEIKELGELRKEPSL
Experiment [12] has the same target. The experiment can be described thus: flow cytometry, surface binding on Capan-1 cells.
The target of experiment [13] is CD74 (invariant chain, Ii) (human) (UniProt P04233). The experiment can be described thus: cell binding assay on antigen-positive cells.
Sequence of CD74 (invariant chain, Ii) (human) (P04233 whole entry, change not shown): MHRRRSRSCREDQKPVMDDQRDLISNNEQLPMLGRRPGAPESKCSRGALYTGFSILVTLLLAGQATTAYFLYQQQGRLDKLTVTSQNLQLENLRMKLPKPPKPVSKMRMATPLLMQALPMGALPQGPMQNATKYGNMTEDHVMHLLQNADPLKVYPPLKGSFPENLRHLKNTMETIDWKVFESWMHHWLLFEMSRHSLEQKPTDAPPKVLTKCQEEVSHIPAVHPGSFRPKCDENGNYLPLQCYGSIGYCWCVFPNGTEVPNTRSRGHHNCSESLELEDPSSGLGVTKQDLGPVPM
The target of experiment [14] is CD22 (human) (UniProt P20273). The experiment can be described thus: flow cytometry, unconjugated antibody + FITC goat anti-human IgG, Ramos cells; background in parentheses.
Experiment [15] deals with CD22 (human) (UniProt P20273). The experiment can be described thus: flow cytometry, unconjugated antibody + FITC goat anti-human IgG, REH cells; background in parentheses.
Experiment [16] concerns the target CD22 (human) (UniProt P20273). As to the kind of experiment: flow cytometry, unconjugated antibody + FITC goat anti-human IgG, Daudi cells; background in parentheses.
The target in experiment [17] is CD22 (human) (UniProt P20273). The experiment can be described thus: flow cytometry, unconjugated antibody + FITC goat anti-human IgG, Jeko-1 cells; background in parentheses.
The target in experiment [18] is CD22 (human) (UniProt P20273). The experiment can be described thus: flow cytometry, unconjugated antibody + FITC goat anti-human IgG, Raji cells; background in parentheses.
In experiment [19] the target is CD22 (human) (UniProt P20273). The experiment can be described thus: flow cytometry, unconjugated antibody + FITC goat anti-human IgG, 697 cells; background in parentheses.
In experiment [20] the target is CD22 (human) (UniProt P20273). As to the kind of experiment: flow cytometry, unconjugated antibody + FITC goat anti-human IgG, RS4;11 cells; background in parentheses.
Experiment [21] concerns the target CD22 (human) (UniProt P20273). The experiment can be described thus: flow cytometry, unconjugated antibody + FITC goat anti-human IgG, WSU-FSCCL cells; background in parentheses.
In experiment [22] the target is CD22 (human) (UniProt P20273). As to the kind of experiment: flow cytometry, unconjugated antibody + FITC goat anti-human IgG, MN-60 cells; background in parentheses.
Experiment [23] addresses CD74 (invariant chain, Ii) (human) (UniProt P04233). The experiment can be described thus: flow cytometry, membrane-only CD74, Hep-G2 cells.
Experiment [24] has the same target. As to the kind of experiment: flow cytometry, permeabilized Hs746T cells.
Experiment [25] shares this target. As to the kind of experiment: flow cytometry, membrane-only CD74, Hs746T cells; background (GAH-FITC only) in parentheses.
Experiment [26] has the same target. As to the kind of experiment: flow cytometry, membrane-only CD74, A-375 cells.
For experiment [27] the target is unchanged. The experiment can be described thus: flow cytometry, permeabilized Capan-1 cells.
Experiment [28] has the same target. The experiment can be described thus: flow cytometry, membrane-only CD74, Hep-G2 cells; background (GAH-FITC only) in parentheses.
The target is the same in experiment [29]. As to the kind of experiment: flow cytometry, permeabilized HuH-7 cells.
The target is the same in experiment [30]. The experiment can be described thus: flow cytometry, permeabilized Hep-G2 cells; background in parentheses.
For experiment [31] the target is unchanged. The experiment can be described thus: flow cytometry, permeabilized HuH-7 cells; background in parentheses.
For experiment [32] the target is unchanged. As to the kind of experiment: flow cytometry, permeabilized Raji cells.
Experiment [33] has the same target. As to the kind of experiment: flow cytometry, membrane-only CD74, Hs746T cells.
The target is the same in experiment [34]. The experiment can be described thus: flow cytometry, permeabilized A-375 cells.
Experiment [35] has the same target. The experiment can be described thus: flow cytometry, membrane-only CD74, Capan-1 cells.
The target is the same in experiment [36]. As to the kind of experiment: flow cytometry, permeabilized Capan-1 cells; background in parentheses.
For experiment [37] the target is unchanged. As to the kind of experiment: flow cytometry, membrane-only CD74, Raji cells.
For experiment [38] the target is unchanged. The experiment can be described thus: flow cytometry, permeabilized NCI-N87 cells; background in parentheses.
Experiment [39] has the same target. As to the kind of experiment: flow cytometry, permeabilized Raji cells; background in parentheses.
Experiment [40] shares this target. As to the kind of experiment: flow cytometry, membrane-only CD74, HuH-7 cells.
Experiment [41] has the same target. As to the kind of experiment: flow cytometry, membrane-only CD74, A-375 cells; background (GAH-FITC only) in parentheses.
The target is the same in experiment [42]. The experiment can be described thus: flow cytometry, permeabilized A-375 cells; background in parentheses.
Experiment [43] shares this target. As to the kind of experiment: flow cytometry, membrane-only CD74, HuH-7 cells; background (GAH-FITC only) in parentheses.
For experiment [44] the target is unchanged. As to the kind of experiment: flow cytometry, membrane-only CD74, NCI-N87 cells; background (GAH-FITC only) in parentheses.
For experiment [45] the target is unchanged. The experiment can be described thus: flow cytometry, membrane-only CD74, Raji cells; background (GAH-FITC only) in parentheses.
For experiment [46] the target is unchanged. The experiment can be described thus: flow cytometry, membrane-only CD74, NCI-N87 cells.
Experiment [47] shares this target. The experiment can be described thus: flow cytometry, permeabilized Hep-G2 cells.
Experiment [48] shares this target. The experiment can be described thus: flow cytometry, permeabilized NCI-N87 cells.
Experiment [49] has the same target. The experiment can be described thus: flow cytometry, membrane-only CD74, Capan-1 cells; background (GAH-FITC only) in parentheses.
Experiment [50] shares this target. As to the kind of experiment: flow cytometry, permeabilized Hs746T cells; background in parentheses.
Experiment [51] addresses CEACAM6 (human) (UniProt P40199). The experiment can be described thus: flow cytometry, surface, NCI-N87 cells.
Experiment [52] has the same target. As to the kind of experiment: flow cytometry, surface, HuH-7 cells.
Experiment [53] has the same target. As to the kind of experiment: flow cytometry, Hep-G2 cells.

Sequence of CEACAM6 (human) (P40199 35-320): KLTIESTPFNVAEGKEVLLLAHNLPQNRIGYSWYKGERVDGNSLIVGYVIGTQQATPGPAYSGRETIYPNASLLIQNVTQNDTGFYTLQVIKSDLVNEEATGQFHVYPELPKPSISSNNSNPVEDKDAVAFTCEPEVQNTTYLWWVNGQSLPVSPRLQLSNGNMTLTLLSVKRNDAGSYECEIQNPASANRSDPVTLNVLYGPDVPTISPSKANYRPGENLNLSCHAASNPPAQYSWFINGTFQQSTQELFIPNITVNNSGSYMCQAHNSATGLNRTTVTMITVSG

Regarding “hRS7-CL2A-SN-38 (hRS7 IgG conjugated to SN-38 through the CL2A linker) (antibody)”, the Kd – broadly, a measure of binding affinity in units of concentration – in [1] is 1.2 nM.

As to “veltuzumab (hA20), humanized anti-CD20 IgG1 (antibody)”, the median fluorescence in experiment [2] is 620; in [3] it was 12.3; in [4], 815; in experiment [5], 605; in experiment [6], 422; in experiment [7], 6.9. Further, the median fluorescence in [8] was 3.7; in experiment [9], 97.4; in [10], 21.5.

“humanized RS7 IgG (hRS7), anti-TROP-2 (anti-EGP-1) humanized antibody”: the MFI (surface) is 795 in [11] and 237 in [12].

Turning to milatuzumab-CL2A-SN-38 (antibody), in experiment [13], the Kd came out at 0.59 nM.

Regarding “epratuzumab (hLL2), humanized anti-CD22 IgG1 (antibody)”, the median fluorescence in experiment [14] was 40.8; in experiment [15] it was 22.9; in experiment [16], 145; in [17], 11.2; in experiment [18] it was 45.9; in [19] it was 16. In addition, the median fluorescence was 23.3 in [20], 7.7 in experiment [21] and 10.3 in experiment [22].

milatuzumab-CL2E-SN-38 (antibody) gave an equilibrium dissociation constant (Kd) in experiment [13] of 0.8 nM.

“hRS7-CL2-SN-38 (hRS7 IgG conjugated to SN-38 through the CL2 linker) (antibody)” gave a dissociation constant Kd in experiment [1] of 1.2 nM.

As to “milatuzumab (hLL1), humanized anti-CD74 IgG1 (antibody)”, the MFI Ratio hLL1:bkgd (surface) in [23] worked out at 1.5; in experiment [26], 5.3; in experiment [33], 2.1; in experiment [35], 1.8; in experiment [37], 19.6; in [40], 1.6. Moreover, the MFI Ratio hLL1:bkgd (surface) in experiment [46] was determined as 1.3. Moreover, the MFI Ratio hLL1:bkgd (surface and cytoplasmic) in [24] is 28.8; in experiment [27] it was 49.6; in experiment [29], 28.5; in [32], 28.6; in [34], 30.8; in [47] it was 31.2. The MFI Ratio hLL1:bkgd (surface and cytoplasmic) in experiment [48] was determined as 36.7. The MFI (surface) in experiment [25] came out at 17; in [28], 9; in experiment [41] it was 16; in experiment [43], 8; in experiment [44], 5; in experiment [45], 59. Also, the MFI (surface) in experiment [49] came out at 22. The molecule further gave a dissociation constant (Kd) in experiment [13] of 0.77 nM. In addition, the MFI (surface and cytoplasmic) in experiment [30] was 156; in experiment [31] it was 114; in experiment [36], 248; in [38], 220; in [39], 143; in [42], 185. Also, the MFI (surface and cytoplasmic) in experiment [50] came out at 144.

B1: hMN-15, humanized anti-CEACAM6 IgG1 (antibody, from a related filing, V domains shown)
VH: QVQLVESGGGVVQPGRSLRLSCSSSGFALTDYYMSWVRQAPGKGLEWLGFIANKANGHTTDYSPSVKGRFTISRDNSKNTLFLQMDSLRPEDTGVYFCARDMGIRWNFDVWGQGTPVTVSS
VL: DIQLTQSPSSLSASVGDRVTMTCSASSRVSYIHWYQQKPGKAPKRWIYGTSTLASGVPARFSGSGSGTDFTFTISSLQPEDIATYYCQQWSYNPPTFGQGTKVEIKR
Consider B1, for which the MFI (surface) in experiment [51] came to 1120; in experiment [52] it was 81. The molecule also registered an MFI in experiment [53] of 175.
